According to article doi:10.1101/2022.10.11.511767, “A conserved and tunable mechanism for the temperature-controlled condensation of the translation factor Ded1p” (bioRxiv, 2022):
Each block holds one binder with its values, some of them ahead of it.

Assays:
Conditions in all cases: both partners purified
[1] = biological target: T1, helicase core region of Sc Ded1p (RecA1-RecA2, residues 82-535) (S. cerevisiae, UniProt P06634 82-535); experiment: NMR titration; 1H-15N spectra of the isotope-labelled N-terminal IDR; unlabelled helicase core, RecA1 or RecA2 added; 20 mM HEPES pH 7.3, 125 mM NaCl, 1 mM DTT, 5% D2O
T1 construct: Ded1p (DEAD-box RNA helicase), S. cerevisiae, helicase core region (RecA1-RecA2), residues 82-535; Used unlabelled (NMR invisible); also called Sc helicase domain (RecA1-RecA2); helicase core domain; source: E. coli, purified (Ni-NTA, TEV cleavage, second Ni-NTA, size exclusion); not shown: His6, N-terminal, cleaved

[2] = biological target: T2, RecA2 domain of Sc Ded1p (residues 369-535) (S. cerevisiae, UniProt P06634 369-535); experiment: as above
T2 construct: Ded1p (DEAD-box RNA helicase), S. cerevisiae, second RecA domain, residues 369-535; 15N and/or 13C isotope labelled when it was the NMR-visible partner, unlabelled when NMR invisible; also called second RecA domain; Rec2 subdomain; source: E. coli, purified (Ni-NTA, TEV cleavage, second Ni-NTA, size exclusion); not shown: His6, N-terminal, cleaved

[3] = biological target: T1, helicase core region of Sc Ded1p …; experiment: NMR titration; 1H-15N spectra of the isotope-labelled C-terminal IDR; unlabelled helicase core, RecA1 or RecA2 added; visible condensation in the NMR tube; 20 mM HEPES pH 7.3, 125 mM NaCl, 1 mM DTT, 5% D2O
[4] = biological target: T3, RecA1 domain of Sc Ded1p (residues 82-369) (S. cerevisiae, UniProt P06634 82-369); experiment: as above
T3 construct: Ded1p (DEAD-box RNA helicase), S. cerevisiae, first RecA domain, residues 82-369; Used unlabelled (NMR invisible); also called first RecA domain; RecA1 subdomain; source: E. coli, purified (Ni-NTA, TEV cleavage, second Ni-NTA, size exclusion); not shown: His6, N-terminal, cleaved
T3 sequence (P06634 82-369): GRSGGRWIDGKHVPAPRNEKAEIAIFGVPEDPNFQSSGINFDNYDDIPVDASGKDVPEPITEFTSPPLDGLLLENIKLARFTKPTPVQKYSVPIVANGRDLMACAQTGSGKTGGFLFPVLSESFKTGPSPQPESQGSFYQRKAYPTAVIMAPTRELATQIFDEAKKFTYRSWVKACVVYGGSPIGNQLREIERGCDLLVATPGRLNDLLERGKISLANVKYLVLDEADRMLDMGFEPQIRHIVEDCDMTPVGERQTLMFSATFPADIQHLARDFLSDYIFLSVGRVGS

T1 sequence (P06634 82-535): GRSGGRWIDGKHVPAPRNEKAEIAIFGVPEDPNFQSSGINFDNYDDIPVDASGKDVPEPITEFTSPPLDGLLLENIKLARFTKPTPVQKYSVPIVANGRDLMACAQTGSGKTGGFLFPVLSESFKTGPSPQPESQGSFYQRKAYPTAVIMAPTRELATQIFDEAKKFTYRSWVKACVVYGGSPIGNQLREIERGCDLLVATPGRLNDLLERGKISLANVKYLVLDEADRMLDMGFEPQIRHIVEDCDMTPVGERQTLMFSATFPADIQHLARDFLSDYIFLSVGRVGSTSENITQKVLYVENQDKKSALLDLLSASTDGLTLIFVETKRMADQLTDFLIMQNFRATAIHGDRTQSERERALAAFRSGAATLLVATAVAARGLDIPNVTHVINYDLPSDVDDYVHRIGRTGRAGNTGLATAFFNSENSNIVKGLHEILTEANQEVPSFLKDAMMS
T2 sequence (P06634 369-535): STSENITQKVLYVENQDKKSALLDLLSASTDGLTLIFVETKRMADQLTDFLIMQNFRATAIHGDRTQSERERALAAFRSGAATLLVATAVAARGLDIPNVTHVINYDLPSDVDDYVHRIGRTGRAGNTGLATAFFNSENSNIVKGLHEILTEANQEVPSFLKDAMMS

binding result [1]: binds | binding result [2]: binds
B1: N-terminal IDR of Sc Ded1p (residues 1-81) (domain or fragment, S. cerevisiae, UniProt P06634 1-81, looked up)
chain: MAELSEQVQNLSINDNNENGYVPPHLRGKPRSARNNSSNYNNNNGGYNGGRGGGSFFSNNRRGGYGNGGFFGGNNGGSRSN
notes: Ded1p (DEAD-box RNA helicase), S. cerevisiae, N-terminal intrinsically disordered region, residues 1-81; 15N and/or 13C isotope labelled when it was the NMR-visible partner, grown in LB (unlabelled) when NMR invisible; also called N-terminal region; N-IDR; source: E. coli, purified (Ni-NTA, TEV cleavage, second Ni-NTA, size exclusion); not shown: His6, N-terminal, cleaved

binding result [3]: binds | binding result [4]: binds
B2: C-terminal IDR of Sc Ded1p (residues 533-604) (domain or fragment, S. cerevisiae, UniProt P06634 533-604, looked up)
chain: MMSAPGSRSNSRRGGFGRNNNRDYRKAGGASAGGWGSSRSRDNSFRGGSGWGSDSKSSGWGNSGGSNNSSWW
notes: Ded1p (DEAD-box RNA helicase), S. cerevisiae, C-terminal intrinsically disordered region, residues 533-604; 15N isotope labelled (NMR visible) in the titrations; also called C-IDR; source: E. coli, purified (Ni-NTA, TEV cleavage, second Ni-NTA, size exclusion); not shown: His6, N-terminal, cleaved
